# The supplement of paper PMC9112550, “Optimization of the antimicrobial peptide Bac7 by deep mutational scanning” (BMC Biology, 2022)
# Tested on: Escherichia coli TOP10
# Assay: shrunken log2 fold change of peptide-encoding DNA abundance (4.5 h post-induction vs induction); higher = less antimicrobial activity (less host growth inhibition)
# Conditions: time post-induction: 4.5 h; library: site-saturation at positions 5, 18, 19, 20
# 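Further: peptides expressed intracellularly from a pBAD plasmid library in pooled LB shake-flask culture, induced with 0.3% L-arabinose, DNA abundance read by NGS, three biological replicates, DESeq2 with apeglm shrinkage.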
row,Sequence,shrunken log2 fold change
1,RRIRMRPPRLPRPRPRPNHPPRP,-0.0733
2,RRIRYRPPRLPRPRPRPTYTPRP,-0.802
3,RRIRCRPPRLPRPRPRPVIMPRP,-0.604
4,RRIRNRPPRLPRPRPRPKQVPRP,-0.173
5,RRIRVRPPRLPRPRPRPQDRPRP,0.0443
6,RRIRDRPPRLPRPRPRPAAKPRP,0.359
7,RRIRQRPPRLPRPRPRPQAAPRP,0.0499
8,RRIRQRPPRLPRPRPRPWNGPRP,-0.0018
9,RRIRARPPRLPRPRPRPLRSPRP,0.914
10,RRIRGRPPRLPRPRPRPFFFPRP,0.696
11,RRIRGRPPRLPRPRPRPIRTPRP,0.21
12,RRIRERPPRLPRPRPRPCWQPRP,-0.0429
13,RRIRYRPPRLPRPRPRPRFLPRP,-0.42
14,RRIRQRPPRLPRPRPRPNIQPRP,-0.228
15,RRIRERPPRLPRPRPRPQTYPRP,-1.1
16,RRIRMRPPRLPRPRPRPDDQPRP,-0.0167
17,RRIRSRPPRLPRPRPRPKMPPRP,0.0106
18,RRIRIRPPRLPRPRPRPWGNPRP,-0.803
19,RRIRPRPPRLPRPRPRPTPCPRP,0.365
20,RRIRQRPPRLPRPRPRPDWGPRP,-0.0197
21,RRIRWRPPRLPRPRPRPSEQPRP,-0.247
22,RRIRWRPPRLPRPRPRPPDWPRP,1.19
23,RRIRWRPPRLPRPRPRPVYMPRP,-0.476
24,RRIRSRPPRLPRPRPRPTTAPRP,0.155
25,RRIRRRPPRLPRPRPRPWVGPRP,-0.00367

row,Sequence,shrunken log2 fold change
1,RRIRWRPPRLPRPRPRPFWWPRP,0.402
2,RRIRFRPPRLPRPRPRPLAPPRP,0.193
3,RRIRWRPPRLPRPRPRPHARPRP,0.516
4,RRIRKRPPRLPRPRPRPVHRPRP,-0.0578
5,RRIRIRPPRLPRPRPRPFVRPRP,-0.0158
6,RRIRARPPRLPRPRPRPESLPRP,0.938
7,RRIRNRPPRLPRPRPRPNMYPRP,-0.392
8,RRIRKRPPRLPRPRPRPWWRPRP,-0.108
9,RRIRYRPPRLPRPRPRPMTMPRP,-0.615
10,RRIRMRPPRLPRPRPRPFGTPRP,-0.112
11,RRIRNRPPRLPRPRPRPIDLPRP,-0.0431
12,RRIRSRPPRLPRPRPRPGGKPRP,0.0269
13,RRIRVRPPRLPRPRPRPTNDPRP,0.0333
14,RRIRMRPPRLPRPRPRPPSYPRP,0.358
15,RRIRFRPPRLPRPRPRPNAFPRP,0.00827
16,RRIRTRPPRLPRPRPRPYGVPRP,0.0122
17,RRIRGRPPRLPRPRPRPEKYPRP,0.172
18,RRIRRRPPRLPRPRPRPRKAPRP,0.885
19,RRIRHRPPRLPRPRPRPTLNPRP,0.134
20,RRIRPRPPRLPRPRPRPETSPRP,0.328
21,RRIRGRPPRLPRPRPRPEVGPRP,1.52
22,RRIRPRPPRLPRPRPRPNQVPRP,0.0456
23,RRIRCRPPRLPRPRPRPWLHPRP,-0.305
24,RRIRHRPPRLPRPRPRPTFTPRP,-0.265
25,RRIRERPPRLPRPRPRPAYRPRP,-0.429

row,Sequence,shrunken log2 fold change
1,RRIRHRPPRLPRPRPRPIRSPRP,-0.0062
2,RRIRNRPPRLPRPRPRPHKTPRP,-0.22
3,RRIRERPPRLPRPRPRPATGPRP,-0.0619
4,RRIRLRPPRLPRPRPRPSHNPRP,-0.735
5,RRIRNRPPRLPRPRPRPHAEPRP,0.00246
6,RRIRYRPPRLPRPRPRPRVGPRP,0.161
7,RRIRCRPPRLPRPRPRPHENPRP,-0.0452
8,RRIRPRPPRLPRPRPRPTRAPRP,0.707
9,RRIRHRPPRLPRPRPRPATVPRP,0.00308
10,RRIRHRPPRLPRPRPRPPTEPRP,0.159
11,RRIRLRPPRLPRPRPRPIQKPRP,0.0625
12,RRIRHRPPRLPRPRPRPPVLPRP,0.0936
13,RRIRNRPPRLPRPRPRPAQAPRP,-0.0253
14,RRIRLRPPRLPRPRPRPSEEPRP,-0.0637
15,RRIRQRPPRLPRPRPRPLEEPRP,0.275
16,RRIRSRPPRLPRPRPRPIQRPRP,0.0978
17,RRIRMRPPRLPRPRPRPYVQPRP,0.056
18,RRIRNRPPRLPRPRPRPCQLPRP,-0.0247
19,RRIRLRPPRLPRPRPRPWKFPRP,-0.00232
20,RRIRFRPPRLPRPRPRPCPCPRP,-0.21
21,RRIRKRPPRLPRPRPRPLYTPRP,-0.288
22,RRIRPRPPRLPRPRPRPEWHPRP,1.23
23,RRIRHRPPRLPRPRPRPNWGPRP,0.0702
24,RRIRRRPPRLPRPRPRPFFSPRP,0.043
25,RRIRDRPPRLPRPRPRPPFVPRP,0.0811
